The values below come from patent publication US20200017552A1.

Assay [1] concerns the target HA of Ft. Monmouth influenza virus (on virions) (influenza virus strain Ft. Monmouth). Put plainly: cell-based or functional assay.
For assay [2], the target named is Influenza H1 hemagglutinin (HA), strain not stated for this experiment. Put plainly: biolayer interferometry after incubation at 80 °C; HA strain not stated. On the technique in general: Biolayer interferometry detects binding as a change in optical thickness at a sensor tip.

With mAb FI6v3 (antibody), the EC50 values for inhibition of viral replication in vitro in assay [1] came to 3.1 µg/mL. In assay [2], this substance yielded a reduction of binding activity after 1 hr at 80 °C of 74%.
